Results as given in patent publication US20180155451A1 (published 2018).

Key:
FcγRIa [1] = biological target: T1, FcγRIa (human, UniProt P12314 16-292); assay: SPR (Biacore), relative binding
T1 construct: extracellular domain; also called FcgRIa; FcgRI; not shown: His tag attached to the C terminus
Excerpt: The constructed expression vectors were each combined with GpH7-A5 and GpL16-k0 to express heterodimerized antibodies, or they were combined with GpL16-k0 alone but not with other H chains to express homodimerized antibodies. These antibodies were expressed and purified according to the method described in Reference Example 1. The resulting purified antibodies are the following: the heterodimerized antibodies GpH7-A5/GpH7-B12/GpL16-k0, GpH7-A5/GpH7-B13/GpL16-k0, GpH7-A5/GpH7-B14/GpL16-k0, and GpH7-A5/GpH7-B15/GpL16-k0; and homodimerized antibodies GpH7-B12/GpL16-k0, GpH7-B13/GpL16-k0, GpH7-B14/GpL16-k0, and GpH7-B15/GpL16-k0. The prepared antibodies were used to assess the binding activity to each FcγR by the method described in Reference Example 2.
Analysis of interaction between objective antibody and the FcγR was carried out using Biacore T100 (GE Healthcare). HBS-EP+ (GE Healthcare) was used as the running buffer, and the measurement temperature was set to 25° C. Chips produced by immobilizing the antigen peptide by the amine coupling method to a Series S Sencor Chip CM5 (GE Healthcare), or alternatively, chips produced by allowing preliminarily biotinylated antigen peptides to interact with and immobilize onto a Series S Sensor Chip SA (certified) (GE Healthcare) were used. Antibodies of interest were captured onto an antigen peptide-immobilized chip, and allowed to interact to each FcγR diluted with running buffer. To regenerate and repeatedly use the chip, the antibodies captured on the chip were washed off by reacting 10 mM glycine-HCl, pH 1.5.

FcγRIIIa = biological target: T2, FcγRIIIa (human, UniProt P08637 17-208); assay: SPR (Biacore), KD
T2 construct: extracellular domain; not shown: His tag attached to the C terminus
T2 sequence (P08637 17-208): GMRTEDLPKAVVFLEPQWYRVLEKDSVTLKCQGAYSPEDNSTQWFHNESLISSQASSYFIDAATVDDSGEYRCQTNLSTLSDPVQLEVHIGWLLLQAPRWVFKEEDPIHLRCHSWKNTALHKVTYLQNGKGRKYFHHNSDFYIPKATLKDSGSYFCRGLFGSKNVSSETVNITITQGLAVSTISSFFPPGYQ

FcγRIIIa F = biological target: T3, FcγRIIIa F (human, UniProt P08637 17-208); assay: SPR (Biacore), KD
T3 construct: extracellular domain; also called FcgRIIIa F; FcgRIIIaF; not shown: His tag attached to the C terminus
T3 sequence (P08637 17-208): as above

FcγRIIIa V = biological target: T4, FcγRIIIa V (human, UniProt P08637 17-208); assay: SPR (Biacore), KD
T4 construct: extracellular domain; also called FcgRIIIa V; FcgRIIIaV; not shown: His tag attached to the C terminus
T4 sequence (P08637 17-208 F176V limits assumed): as the sequence (P08637 17-208) above, with F160V counted along it

FcγRIa [2] = biological target: T1, FcγRIa; assay: SPR (Biacore4000), kinetic analysis
Method: The variants described above were assessed for their binding to FcγR according to the method described in Reference Example 8.
Analysis of interaction between obj ective antibody and the FcγR was carried out using Biacore T100 (GE Healthcare), Biacore T200, Biacore A100, and Biacore 4000. HBS-EP+ (GE Healthcare) was used as the running buffer, and the measurement temperature was set to 25° C. Chips produced by immobilizing the antigen peptide by the amine coupling method to a Series S sensor Chip CM5 (GE Healthcare), chips produced by allowing preliminarily biotinylated antigen peptides to interact with and immobilize onto a Series S Sensor Chip SA (certified) (GE Healthcare), chips produced by immobilizing Protein L (ACTIGEN, BioVision) to Series S Sencor Chip CM5 (GE Healthcare), or chips produced by immobilizing Protein A/G (Thermo Scientific) to Series S Sencor Chip CM5 (GE Healthcare) were used. Antibodies of interest were captured onto these chips, and allowed to interact to each FcγR diluted with running buffer. To regenerate and repeatedly use the chip, the antibodies captured onto the chip were washed off by reacting 10 mM glycine-HCl, pH 1.5.

T1 sequence (P12314 16-292): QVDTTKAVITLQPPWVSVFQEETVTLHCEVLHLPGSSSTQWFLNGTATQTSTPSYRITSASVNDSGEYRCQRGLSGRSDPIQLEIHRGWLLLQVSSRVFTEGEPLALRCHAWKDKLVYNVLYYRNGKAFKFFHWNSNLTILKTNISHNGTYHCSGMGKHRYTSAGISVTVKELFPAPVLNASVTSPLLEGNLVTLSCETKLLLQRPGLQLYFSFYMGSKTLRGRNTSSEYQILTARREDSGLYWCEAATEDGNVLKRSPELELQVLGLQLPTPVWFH

Binder	binding activity relative to GpH7-A5/GpH7-B3/GpL16-k0 (FcγRIa [1])	fold decrease of binding activity against GpH7-A57/GpH7-B78/GpL16-k0 (FcγRIIIa) [fold]	fold enhancement of binding against the variant before introduction of I332E and Y235N (FcγRIIIa F) [fold]	fold enhancement of binding against the variant before introduction of I332E and Y235N (FcγRIIIa V) [fold]	koff (FcγRIa [2]) [s⁻¹]
GpH7-B14/GpL16-k0 (antibody, human IgG1, kappa, P329D in both H chains) heavy: not shown light: DIVMTQSPLSLPVTPGEPASISCQASESLVHSNRNTYLHWYLQKPGQSPQLLIYKVSNRFSGVPDRFSGSGSGTDFTLKISRVEAEDVGVYYCSQNTHVPPTFGQGTKVEIERTVAAPSVFIFPPSDEQLKSGTASVVCLLNNFYPREAKVQWKVDNALQSGNSQESVTEQDSKDSTYSLSSTLTLSKADYEKHKVYACEVTHQGLSSPVTKSFNRGEC	≤ 0.2 fraction of GpH7-A5/GpH7-B3/GpL16-k0				
H240-Kn192/H240-Hl204/L73-k0 (antibody, human IgG1, kappa, Y235N/E294K in H240-Kn120; G236T/I332E in H240-Hl068) heavy 1: QDQLVQSGAEVKKPGASVKVSCKASGFNIKDTYIQWVRQAPGQGLEWMGRIDPLRKQTKYREKFEGRVTITADTSTNTAYMELSSLRSEDTAVYYCVRSGREFDYWGQGTLVTVSSASTKGPSVFPLAPSSKSTSGGTAALGCLVKDYFPEPVTVSWNSGALTSGVHTFPAVLQSSGLYSLSSVVTVPSSSLGTQTYICNVNHKPSNTKVDKKVEPKSCDKTHTCPPCPAPEYNWGPMVFLFPPKPKDTLMISRTPEVTCVVVDVSDEDPEVKFNWYVDGVEVHNAKTKPREKQYNATYRVVSVLTVLHQDWLNGKEYKCKVSNKDLPAPIEKTISKAKGQPREPQVCTLPPSRDELTKNQVSLWCLVKGFYPSDIAVEWESNGQPENNYKTTPPVLDSDGSFFLYSKLTVDKSRWQQGNVFSCSVMHEALHNHYTQKSLSLSP heavy 2: QDQLVQSGAEVKKPGASVKVSCKASGFNIKDTYIQWVRQAPGQGLEWMGRIDPLRKQTKYREKFEGRVTITADTSTNTAYMELSSLRSEDTAVYYCVRSGREFDYWGQGTLVTVSSASTKGPSVFPLAPSSKSTSGGTAALGCLVKDYFPEPVTVSWNSGALTSGVHTFPAVLQSSGLYSLSSVVTVPSSSLGTQTYICNVNHKPSNTKVDKKVEPKSCDKTHTCPPCPAPELLTGPSVFLFPPKPKDTLMISRTPEVTCVVVDVSHEEPEVKFNWYVDGVEVHNAKTKPREEQYNSTYRVVSVLTVLHQDWLNGKEYKCKVSNDALPKPEEETISKAKGQPREPQVYTLPPSRCELTKNQVSLSCAVKGFYPSDIAVEWESNGQPENNYKTTPPVLDSDGSFFLVSKLTVDKSRWQQGNVFSCSVMHEALHNHYTQKSLSLSP light: DIQMTQSPSSLSASVGDRVTITCRASQDIHKYIAWYQQKPGQAPRLLIQYTSTLQPGVPSRFSGSGSGTDYTFTISSLQPEDIATYYCLQYEQLRTFGGGTKVEIKRTVAAPSVFIFPPSDEQLKSGTASVVCLLNNFYPREAKVQWKVDNALQSGNSQESVTEQDSKDSTYSLSSTLTLSKADYEKHKVYACEVTHQGLSSPVTKSFNRGEC			2	8	< 5e-05
H240-Kn193/H240-Hl204/L73-k0 (antibody, human IgG1, kappa, Y235N/E294R in H240-Kn120; G236T/I332E in H240-Hl068) heavy 1: QDQLVQSGAEVKKPGASVKVSCKASGFNIKDTYIQWVRQAPGQGLEWMGRIDPLRKQTKYREKFEGRVTITADTSTNTAYMELSSLRSEDTAVYYCVRSGREFDYWGQGTLVTVSSASTKGPSVFPLAPSSKSTSGGTAALGCLVKDYFPEPVTVSWNSGALTSGVHTFPAVLQSSGLYSLSSVVTVPSSSLGTQTYICNVNHKPSNTKVDKKVEPKSCDKTHTCPPCPAPEYNWGPMVFLFPPKPKDTLMISRTPEVTCVVVDVSDEDPEVKFNWYVDGVEVHNAKTKPRERQYNATYRVVSVLTVLHQDWLNGKEYKCKVSNKDLPAPIEKTISKAKGQPREPQVCTLPPSRDELTKNQVSLWCLVKGFYPSDIAVEWESNGQPENNYKTTPPVLDSDGSFFLYSKLTVDKSRWQQGNVFSCSVMHEALHNHYTQKSLSLSP heavy 2: QDQLVQSGAEVKKPGASVKVSCKASGFNIKDTYIQWVRQAPGQGLEWMGRIDPLRKQTKYREKFEGRVTITADTSTNTAYMELSSLRSEDTAVYYCVRSGREFDYWGQGTLVTVSSASTKGPSVFPLAPSSKSTSGGTAALGCLVKDYFPEPVTVSWNSGALTSGVHTFPAVLQSSGLYSLSSVVTVPSSSLGTQTYICNVNHKPSNTKVDKKVEPKSCDKTHTCPPCPAPELLTGPSVFLFPPKPKDTLMISRTPEVTCVVVDVSHEEPEVKFNWYVDGVEVHNAKTKPREEQYNSTYRVVSVLTVLHQDWLNGKEYKCKVSNDALPKPEEETISKAKGQPREPQVYTLPPSRCELTKNQVSLSCAVKGFYPSDIAVEWESNGQPENNYKTTPPVLDSDGSFFLVSKLTVDKSRWQQGNVFSCSVMHEALHNHYTQKSLSLSP light: DIQMTQSPSSLSASVGDRVTITCRASQDIHKYIAWYQQKPGQAPRLLIQYTSTLQPGVPSRFSGSGSGTDYTFTISSLQPEDIATYYCLQYEQLRTFGGGTKVEIKRTVAAPSVFIFPPSDEQLKSGTASVVCLLNNFYPREAKVQWKVDNALQSGNSQESVTEQDSKDSTYSLSSTLTLSKADYEKHKVYACEVTHQGLSSPVTKSFNRGEC			2	8	< 5e-05

Now from value to binder:

binding activity relative to GpH7-A5/GpH7-B3/GpL16-k0 (FcγRIa [1])	fold decrease of binding activity against GpH7-A57/GpH7-B78/GpL16-k0 (FcγRIIIa) [fold]	fold enhancement of binding against the variant before introduction of I332E and Y235N (FcγRIIIa F) [fold]	fold enhancement of binding against the variant before introduction of I332E and Y235N (FcγRIIIa V) [fold]	koff (FcγRIa [2]) [s⁻¹]	Binder
≤ 0.2 fraction of GpH7-A5/GpH7-B3/GpL16-k0					GpH7-B15/GpL16-k0 (antibody, human IgG1, kappa, P329E in both H chains) heavy: not shown light: DIVMTQSPLSLPVTPGEPASISCQASESLVHSNRNTYLHWYLQKPGQSPQLLIYKVSNRFSGVPDRFSGSGSGTDFTLKISRVEAEDVGVYYCSQNTHVPPTFGQGTKVEIERTVAAPSVFIFPPSDEQLKSGTASVVCLLNNFYPREAKVQWKVDNALQSGNSQESVTEQDSKDSTYSLSSTLTLSKADYEKHKVYACEVTHQGLSSPVTKSFNRGEC
	1.8				GpH7-A53/GpH7-B78/GpL16-k0 (antibody, human IgG1, kappa, S239D in one H chain, S239D/A330L/I332E in the other) heavy 1: QVQLVQSGAEVKKPGASVTVSCKASGYTFTDYEMHWIRQPPGEGLEWIGAIDPKTGDTAYSESFQDRVTLTADKSTSTAYMELSSLTSEDTAVYYCTRFYSYTYWGQGTLVTVSSASTKGPSVFPLAPSSKSTSGGTAALGCLVKDYFPEPVTVSWNSGALTSGVHTFPAVLQSSGLYSLSSVVTVPSSSLGTQTYICNVNHKPSNTKVDKKVEPKSCDKTHTCPPCPAPELLGGPDVFLFPPKPKDTLMISRTPEVTCVVVDVSHEDPEVKFNWYVDGVEVHNAKTKPREEQYNSTYRVVSVLTVLHQDWLNGKEYKCKVSNKALPAPIEKTISKAKGQPREPQVYTLPPSRKELTKNQVSLTCLVKGFYPSDIAVEWESNGQPENNYKTTPPVLDSDGSFFLYSKLTVDKSRWQQGNVFSCSVMHEALHNRYTQKSLSLSP heavy 2: QVQLVQSGAEVKKPGASVTVSCKASGYTFTDYEMHWIRQPPGEGLEWIGAIDPKTGDTAYSESFQDRVTLTADKSTSTAYMELSSLTSEDTAVYYCTRFYSYTYWGQGTLVTVSSASTKGPSVFPLAPSSKSTSGGTAALGCLVKDYFPEPVTVSWNSGALTSGVHTFPAVLQSSGLYSLSSVVTVPSSSLGTQTYICNVNHKPSNTKVDKKVEPKSCDKTHTCPPCPAPELLGGPDVFLFPPKPKDTLMISRTPEVTCVVVDVSHEDPEVKFNWYVDGVEVHNAKTKPREEQYNSTYRVVSVLTVLHQDWLNGKEYKCKVSNKALPLPEEKTISKAKGQPREPQVYTLPPSRDELTKNQVSLTCLVKGFYPSDIAVEWESNGQPENNYKTTPPVLDSDGSFFLYSKLTVDKSRWQQGNVFSCSVMHEALHNHYTQESLSLSP light: DIVMTQSPLSLPVTPGEPASISCQASESLVHSNRNTYLHWYLQKPGQSPQLLIYKVSNRFSGVPDRFSGSGSGTDFTLKISRVEAEDVGVYYCSQNTHVPPTFGQGTKVEIERTVAAPSVFIFPPSDEQLKSGTASVVCLLNNFYPREAKVQWKVDNALQSGNSQESVTEQDSKDSTYSLSSTLTLSKADYEKHKVYACEVTHQGLSSPVTKSFNRGEC
